Data as given in the supplement of paper PMC5998384.

Legend:
HeLa Kyoto [1] = test: solubility in G1/S (NP-40 vs SDS abundance) (log2 ratio); higher = more soluble; settings: cell cycle stage: G1/S
HeLa Kyoto [2] = test: melting temperature (median over replicates), in situ; higher = more thermally stable
HeLa Kyoto [3] = test: solubility change mitosis vs G1/S (difference of NP-40 vs SDS log2 ratios) (log2 ratio difference); higher = more soluble in mitosis
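Wherever melting temperature (median over replicates), in situ is given: HeLa Kyoto cells synchronized by double thymidine or nocodazole block, proteins quantified by TMT10plex mass spectrometry, three independent biological replicates.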
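Wherever solubility change mitosis vs G1/S (difference of NP-40 vs SDS log2 ratios) is given: synchronized HeLa Kyoto cells (double thymidine block for G1/S, nocodazole release for mitosis), protein amounts in NP-40 versus SDS lysates quantified by mass spectrometry, three biological replicates.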
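Wherever solubility in G1/S (NP-40 vs SDS abundance) is given: HeLa Kyoto cells arrested at G1/S by double thymidine block, proteins quantified by TMT10plex mass spectrometry in mild NP-40 versus SDS extracts, three biological replicates.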

Sequence of PYM1 (chain, as listed by the source): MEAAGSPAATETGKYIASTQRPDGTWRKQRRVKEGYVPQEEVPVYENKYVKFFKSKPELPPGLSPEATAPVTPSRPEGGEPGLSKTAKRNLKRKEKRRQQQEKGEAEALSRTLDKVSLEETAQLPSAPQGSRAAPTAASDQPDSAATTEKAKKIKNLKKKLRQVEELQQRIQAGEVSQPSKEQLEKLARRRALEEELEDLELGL
Sequence of UBE2D3 (chain, as listed by the source): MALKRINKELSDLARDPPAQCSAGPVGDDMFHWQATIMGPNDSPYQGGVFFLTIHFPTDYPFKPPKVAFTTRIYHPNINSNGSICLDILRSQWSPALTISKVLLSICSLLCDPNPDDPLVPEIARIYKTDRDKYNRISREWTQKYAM

Substance | solubility in G1/S (log2) (HeLa Kyoto [1]) | melting temperature (HeLa Kyoto [2]; cell cycle stage: G1/S) | melting temperature (HeLa Kyoto [2]; cell cycle stage: mitosis) | solubility change mitosis (log2) (HeLa Kyoto [3])
MGEAGAGAGASGGPEASPEAEVVKLLPFLAPGARADLQAAAVRHVLALTGCGPGRALLAGQAALLQALMELAPASAPARDAARALVNLAADPGLHETLLAADPGLPARLMGRALDPQWPWAEEAAAALANLSREPAPCAALMAALAAAEPADSGLERLVRALCTPGYNARAPLHYLAPLLSNLSQRPAARAFLLDPDRCVVQRLLPLTQYPDSSVRRGGVVGTLRNCCFEHRHHEWLLGPEVDILPFLLLPLAGPEDFSEEEMERLPVDLQYLPPDKQREPDADIRKMLVEAIMLLTATAPGRQQVRDQGAYLILRELHSWEPEPDVRTACEKLIQVLIGDEPERGMENLLEVQVPEDVEQQLQQLDCREQEQLERELAPEPWVERATPT [HGH1] | 0.131 | 48.7 °C | 50.5 °C | 0.156
MAAEEKDPLSYFAAYGSSSSGSSDEEDNIEPEETSRRTPDPAKSAGGCRNKAEKRLPGPDELFRSVTRPAFLYNPLNKQIDWERHVVKAPEEPPKEFKIWKSNYVPPPETYTTEKKPPPPELDMAIKWSNIYEDNGDDAPQNAKKARLLPEGEETLESDDEKDEHTSKKRKVEPGEPAKKKK [C1ORF52] | 0.074 | 54.3 °C | 52.5 °C | 0.413
MATLSFVFLLLGAVSWPPASASGQEFWPGQSAADILSGAASRRRYLLYDVNPPEGFNLRRDVYIRIASLLKTLLKTEEWVLVLPPWGRLYHWQSPDIHQVRIPWSEFFDLPSLNKNIPVIEYEQFIAESGGPFIDQVYVLQSYAEGWKEGTWEEKVDERPCIDQLLYSQDKHEYYRGWFWGYEETRGLNVSCLSVQGSASIVAPLLLRNTSARSVMLDRAENLLHDHYGGKEYWDTRRSMVFARHLREVGDEFRSRHLNSTDDADRIPFQEDWMKMKVKLGSALGGPYLGVHLRRKDFIWGHRQDVPSLEGAVRKIRSLMKTHRLDKVFVATDAVRKEYEELKKLLPEMVRFEPTWEELELYKDGGVAIIDQWICAHARFFIGTSVSTFSFRIHEEREILGLDPKTTYNRFCGDQEKACEQPTHWKITY [POFUT2] | 0.154 | – | 53.8 °C | -0.151
MISQFFILSSKGDPLIYKDFRGDSGGRDVAELFYRKLTGLPGDESPVVMHHHGRHFIHIRHSGLYLVVTTSENVSPFSLLELLSRLATLLGDYCGSLGEGTISRNVALVYELLDEVLDYGYVQTTSTEMLRNFIQTEAVVSKPFSLFDLSSVGLFGAETQQSKVAPSSAASRPVLSSRSDQSQKNEVFLDVVERLSVLIASNGSLLKVDVQGEIRLKSFLPSGSEMRIGLTEEFCVGKSELRGYGPGIRVDEVSFHSSVNLDEFESHRILRLQPPQGELTVMRYQLSDDLPSPLPFRLFPSVQWDRGSGRLQVYLKLRCDLLSKSQALNVRLHLPLPRGVVSLSQELSSPEQKAELAEGALRWDLPRVQGGSQLSGLFQMDVPGPPGPPSHGLSTSASPLGLGPASLSFELPRHTCSGLQVRFLRLAFRPCGNANPHKWVRHLSHSDAYVIRI [AP4M1] | -0.0981 | 49.2 °C | – | -0.0241
MRRYLRVVVLCVACGFCSLLYAFSQLAVSLEEGTGGGGGKPQAAVASWLAGGGRGAVRGAGVAGPAAHPGVSDRCKDFSLCYWNPYWMLPSDVCGMNCFWEAAFRYSLKIQPVEKMHLAVVACGERLEETMTMLKSAIIFSIKPLQFHIFAEDQLHHSFKGRLDNWSFLQTFNYTLYPITFPSENAAEWKKLFKPCASQRLFLPLILKEVDSLLYVDTDILFLRPVDDIWSLLKKFNSTQIAAMAPEHEEPRIGWYNRFARHPYYGKTGVNSGVMLMNMTRMRRKYFKNDMTTVRLQWGDILMPLLKKYKLNITWGDQDLLNIVFFHNPESLFVFPCQWNYRPDHCIYGSNCQEAEEGGIFILHGNRGVYHDDKQPAFRAVYEALRNCSFEDDNIRSLLKPLELELQKTVHTYCGKIYKIFIKQLAKSVRDRYARSPKEK [GXYLT1] | 0.171 | 53.9 °C | – | 0.0753
SYNE2 | -0.84 | 51.1 °C | 50.3 °C | 0.607
MALLFLLPLVMQGVSRAEMGTADLGPSSVPTPTNVTIESYNMNPIVYWEYQIMPQVPVFTVEVKNYGVKNSEWIDACINISHHYCNISDHVGDPSNSLWVRVKARVGQKESAYAKSEEFAVCRDGKIGPPKLDIRKEEKQIMIDIFHPSVFVNGDEQEVDYDPETTCYIRVYNVYVRMNGSEIQYKILTQKEDDCDEIQCQLAIPVSSLNSQYCVSAEGVLHVWGVTTEKSKEVCITIFNSSIKGSLWIPVVAALLLFLVLSLVFICFYIKKINPLKEKSIILPKSLISVVRSATLETKPESKYVSLITSYQPFSLEKEVVCEEPLSPATVPGMHTEDNPGKVEHTEELSSITEVVTTEENIPDVVPGSHLTPIERESSSPLSSNQSEPGSIALNSYHSRNCSESDHSRNGFDTDSSCLESHSSLSDSEFPPNNKGEIKTEGQELITVIKAPTSFGYDKPHVLVDLLVDDSGKESLIGYRPTEDSKEFS [IFNGR1] | 0.103 | – | 55.3 °C | -0.126
ARSB | 0.364 | 56.3 °C | 57.3 °C | -0.198
MAEPSVESSSPGGSATSDDHEFDPSADMLVHDFDDERTLEEEEMMEGETNFSSEIEDLAREGDMPIHELLSLYGYGSTVRLPEEDEEEEEEEEEGEDDEDADNDDNSGCSGENKEENIKDSSGQEDETQSSNDDPSQSVASQDAQEIIRPRRCKYFDTNSEVEEESEEDEDYIPSEDWKKEIMVGSMFQAEIPVGICRYKENEKVYENDDQLLWDPEYLPEDKVIIFLKDASRRTGDEKGVEAIPEGSHIKDNEQALYELVKCNFDTEEALRRLRFNVKAAREELSVWTEEECRNFEQGLKAYGKDFHLIQANKVRTRSVGECVAFYYMWKKSERYDFFAQQTRFGKKKYNLHPGVTDYMDRLLDESESAASSRAPSPPPTASNSSNSQSEKEDGTVSTANQNGVSSNGPGEILNKEEVKVEGLHINGPTGGNKKPLHADMDTNGYETDNLTTDPKLAHMTARNENDFDEKSERPAKRRRVNSNGKESPGSSEFFQEAVSHGKFEELENTDD [MIER1] | 0.00102 | 53.4 °C | 52.2 °C | -0.0394
MADDFGFFSSSESGAPEAAEEDPAAAFLAQQESEIAGIENDEGFGAPAGSHAAPAQPGPTSGAGSEDMGTTVNGDVFQEANGPADGYAAIAQADRLTQEPESIRKWREEQRKRLQELDAASKVTEQEWREKAKKDLEEWNQRQSEQVEKNKINNRIADKAFYQQPDADIIGYVASEEAFVKESKEETPGTEWEKVAQLCDFNPKSSKQCKDVSRLRSVLMSLKQTPLSR [CLTB] | 0.159 | 56.3 °C | 53.3 °C | 0.651
MAAAEEGCSVGAEADRELEELLESALDDFDKAKPSPAPPSTTTAPDASGPQKRSPGDTAKDALFASQEKFFQELFDSELASQATAEFEKAMKELAEEEPHLVEQFQKLSEAAGRVGSDMTSQQEFTSCLKETLSGLAKNATDLQNSSMSEEELTKAMEGLGMDEGDGEGNILPIMQSIMQNLLSKDVLYPSLKEITEKYPEWLQSHRESLPPEQFEKYQEQHSVMCKICEQFEAETPTDSETTQKARFEMVLDLMQQLQDLGHPPKELAGEMPPGLNFDLDALNLSGPPGASGEQCLIM [G3V3G9] | -0.172 | 51.1 °C | 51.3 °C | -0.158
MAAAAAALSGAGTPPAGGGAGGGGAGGGGSPPGGWAVARLEGREFEYLMKKRSVTIGRNSSQGSVDVSMGHSSFISRRHLEIFTPPGGGGHGGAAPELPPAQPRPDAGGDFYLRCLGKNGVFVDGVFQRRGAPPLQLPRVCTFRFPSTNIKITFTALSSEKREKQEASESPVKAVQPHISPLTINIPDTMAHLISPLPSPTGTISAANSCPSSPRGAGSSGYKVGRVMPSDLNLMADNSQPENEKEASGGDSPKDDSKPPYSYAQLIVQAITMAPDKQLTLNGIYTHITKNYPYYRTADKGWQNSIRHNLSLNRYFIKVPRSQEEPGKGSFWRIDPASESKLIEQAFRKRRPRGVPCFRTPLGPLSSRSAPASPNHAGVLSAHSSGAQTPESLSREGSPAPLEPEPGAAQPKLAVIQEARFAQSAPGSPLSSQPVLITVQRQLPQAIKPVTYTVATPVTTSTSQPPVVQTVHVVHQIPAVSVTSVAGLAPANTYTVSGQAVVTPAAVLAPPKAEAQENGDHREVKVKVEPIPAIGHATLGTASRIIQTAQTTPVQTVTIVQQAPLGQHQLPIKTVTQNGTHVASVPTAVHGQVNNAAASPLHMLATHASASASLPTKRHNGDQPEQPELKRIKTEDGEGIVIALSVDTPPAAVREKGVQN [FOXK2] | 0.267 | – | 50.7 °C | -0.0189
CRYBG3 | -0.18 | 51.3 °C | 50.4 °C | -0.00814
UBE2D3 | 0.585 | 49.5 °C | – | 0.0226
MKAVKSERERGSRRRHRDGDVVLPAGVVVKQERLSPEVAPPAHRRPDHSGGSPSPPTSEPARSGHRGNRARGVSRSPPKKKNKASGRRSKSPRSKRNRSPHHSTVKVKQEREDHPRRGREDRQHREPSEQEHRRARNSDRDRHRGHSHQRRTSNERPGSGQGQGRDRDTQNLQAQEEEREFYNARRREHRQRNDVGGGGSESQELVPRPGGNNKEKEVPAKEKPSFELSGALLEDTNTFRGVVIKYSEPPEARIPKKRWRLYPFKNDEVLPVMYIHRQSAYLLGRHRRIADIPIDHPSCSKQHAVFQYRLVEYTRADGTVGRRVKPYIIDLGSGNGTFLNNKRIEPQRYYELKEKDVLKFGFSSREYVLLHESSDTSEIDRKDDEDEEEEEEVSDS [SNIP1] | -0.985 | – | 49.8 °C | 0.493
PYM1 | 0.42 | 57.1 °C | 53.9 °C | 0.791
MESGDEAAIERHRVHLRSATLRDAVPATLHLLPCEVAVDGPAPVGRFFTPAIRQGPEGLEVSFRGRCLRGEEVAVPPGLVGYVMVTEEKKVSMGKPDPLRDSGTDDQEEEPLERDFDRFIGATANFSRFTLWGLETIPGPDAKVRGALTWPSLAAAIHAQVPED [RNASEH2C] | 0.236 | 50.7 °C | 50.3 °C | -0.016
MSVAGGEIRGDTGGEDTAAPGRFSFSPEPTLEDIRRLHAEFAAERDWEQFHQPRNLLLALVGEVGELAELFQWKTDGEPGPQGWSPRERAALQEELSDVLIYLVALAARCRVDLPLAVLSKMDINRRRYPAHLARSSSRKYTELPHGAISEDQAVGPADIPCDSTGQTST [DCTPP1] | -0.0125 | 54.1 °C | 50.5 °C | 0.646
MGWSQDLFRALWRSLSREVKEHVGTDQFGNKYYYIPQYKNWRGQTIREKRIVEAANKKEVDYEAGDIPTEWEAWIRRTRKTPPTMEEILKNEKHREEIKIKSQDFYEKEKLLSKETSEELLPPPVQTQIKGHASAPYFGKEEPSVAPSSTGKTFQPGSWMPRDGKSHNQ [NDUFAF2] | 0.329 | 55.5 °C | 52.2 °C | 0.329
MAPLRFSANLSWLFPELSGLPARVRAAGSSGFEAVEVAWPYAETPEALARAAREAGLRLVLINTPPGDQEKGEMGLGAVPGRQAAFREGLEQAVRYAKALGCPRIHLMAGRVPQGADRIAVKAEMEAVFLENLRHAAGVLAQEDLVGLLEPINTRITDPQYFLDTPQQAAAILQKVGRPNLQLQMDIFHWQIMDGNLTGNIREFLPIVGHVQVAQVPGRGEPSSPGELNFPYLFQLLEDEGYKGFVGCEYQPRGDTVEGLSWLRSYWDRRGHPEAGQ [HYI] | 0.344 | 55.2 °C | 54.7 °C | 0.234
PHLPP1 | 0.00518 | 51.7 °C | 51.2 °C | -0.0508
